Assay results published in patent EP4219720A2 (Caribou Biosciences, Inc., dated 2023).

Experiments:
[1] = target: T1, CasBCDE complex (Strep-tag II-HRV3C-Cse2, Cas7, Cas5, Cas6) with J3/L3 crRNAs (Escherichia coli K-12 MG1655, UniProt Q46899 2-363; Q46898 1-224; Q46897 2-199); experiment: reconstitution from separately purified parts; tested by plasmid DNA cleavage
T1 construct: It also holds a crRNA (J3 or L3 guide), so it is a ribonucleoprotein; Removal of the Strep tag is not described; also called Cas8-less Cascade complex; Cas8-minus Cascade complex
T1 sequence 1: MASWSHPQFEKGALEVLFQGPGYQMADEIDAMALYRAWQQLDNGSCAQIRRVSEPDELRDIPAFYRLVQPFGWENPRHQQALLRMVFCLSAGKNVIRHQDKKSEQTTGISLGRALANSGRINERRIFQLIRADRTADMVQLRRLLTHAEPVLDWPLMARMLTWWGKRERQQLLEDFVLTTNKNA
T1 sequence 2: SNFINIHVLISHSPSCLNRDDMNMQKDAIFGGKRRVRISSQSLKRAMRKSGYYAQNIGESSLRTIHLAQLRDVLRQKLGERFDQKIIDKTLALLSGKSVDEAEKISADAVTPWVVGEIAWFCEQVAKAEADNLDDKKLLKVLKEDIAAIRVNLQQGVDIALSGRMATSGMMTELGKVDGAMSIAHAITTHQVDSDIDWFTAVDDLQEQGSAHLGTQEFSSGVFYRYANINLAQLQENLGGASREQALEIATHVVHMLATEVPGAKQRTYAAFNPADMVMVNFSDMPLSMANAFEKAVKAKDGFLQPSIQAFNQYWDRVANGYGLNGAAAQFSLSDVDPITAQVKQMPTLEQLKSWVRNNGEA
T1 sequence 3: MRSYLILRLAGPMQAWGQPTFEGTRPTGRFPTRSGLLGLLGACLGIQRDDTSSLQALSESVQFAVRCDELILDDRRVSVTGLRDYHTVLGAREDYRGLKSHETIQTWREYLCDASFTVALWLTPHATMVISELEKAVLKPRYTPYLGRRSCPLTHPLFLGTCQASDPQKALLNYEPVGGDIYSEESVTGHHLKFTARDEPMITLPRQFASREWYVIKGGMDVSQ
T1 sequence 4: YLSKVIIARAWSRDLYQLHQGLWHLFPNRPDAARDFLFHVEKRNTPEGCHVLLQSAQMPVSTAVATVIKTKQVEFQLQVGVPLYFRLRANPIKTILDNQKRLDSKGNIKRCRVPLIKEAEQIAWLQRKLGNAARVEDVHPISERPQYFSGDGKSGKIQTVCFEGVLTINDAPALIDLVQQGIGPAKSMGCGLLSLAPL

[2] = target: T2, Cas8, Cas7, Cas6 and Cas5 of E. coli Type I-E Cascade with J3 crRNA (Escherichia coli K-12 MG1655, UniProt Q46901 1-502; Q46899 2-363; Q46897 2-199; Q46898 1-224); experiment: co-expression in E. coli, Ni-NTA capture by His6 on Cse2, SEC, Coomassie SDS-PAGE
T2 construct: They also hold the J3 crRNA; also called remaining Cascade subunits
T2 sequence 1: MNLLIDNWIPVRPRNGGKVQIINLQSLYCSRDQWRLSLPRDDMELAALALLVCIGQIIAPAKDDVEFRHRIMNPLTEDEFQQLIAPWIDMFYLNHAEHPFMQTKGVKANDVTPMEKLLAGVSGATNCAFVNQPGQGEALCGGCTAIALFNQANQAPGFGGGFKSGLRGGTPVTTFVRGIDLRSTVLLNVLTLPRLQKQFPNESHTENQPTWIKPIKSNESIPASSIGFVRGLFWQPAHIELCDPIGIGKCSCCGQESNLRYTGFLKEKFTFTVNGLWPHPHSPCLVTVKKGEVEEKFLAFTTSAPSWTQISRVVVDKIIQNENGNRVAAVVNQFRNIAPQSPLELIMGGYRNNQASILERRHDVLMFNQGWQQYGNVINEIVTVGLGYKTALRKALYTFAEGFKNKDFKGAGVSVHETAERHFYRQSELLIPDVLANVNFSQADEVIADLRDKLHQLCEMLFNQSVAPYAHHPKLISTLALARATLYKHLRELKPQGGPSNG
T2 sequence 2: T1 sequence 2
T2 sequence 3: T1 sequence 4
T2 sequence 4: T1 sequence 3

[3] = target: T3, Cas7, Cas6 and Cas5 of E. coli Type I-E Cascade with L3 crRNA (Escherichia coli K-12 MG1655, UniProt Q46899 2-363; Q46897 2-199; Q46898 1-224); experiment: co-expression in E. coli, Strep-Tactin capture by Strep-tag II on Cse2, SEC, Coomassie SDS-PAGE
T3 construct: They also hold the L3 crRNA; This grouping is mine
T3 sequence 1: T1 sequence 2
T3 sequence 2: T1 sequence 4
T3 sequence 3: T1 sequence 3

B1: NLS-GGS-FokISharkey-30aa-linker-Cas8 (after TEV cleavage) (other)
chain: SNMPKKKRKVQLVKSELEEKKSELRHKLKYVPHEYIELIEIARNPTQDRILEMKVMEFFMKVYGYRGEHLGGSRKPDGAIYTVGSPIDYGVIVDTKAYSGGYNLPIGQADEMQRYVEENQTRNKHINPNEWWKVYPSSVTEFKFLFVSGHFKGNYKAQLTRLNHITNCNGAVLSVEELLIGGEMIKAGTLTLEEVRRKFNNGEINFSGSETPGTSESATPESGGSGSSGGSGSSGGMNLLIDNWIPVRPRNGGKVQIINLQSLYCSRDQWRLSLPRDDMELAALALLVCIGQIIAPAKDDVEFRHRIMNPLTEDEFQQLIAPWIDMFYLNHAEHPFMQTKGVKANDVTPMEKLLAGVSGATNCAFVNQPGQGEALCGGCTAIALFNQANQAPGFGGGFKSGLRGGTPVTTFVRGIDLRSTVLLNVLTLPRLQKQFPNESHTENQPTWIKPIKSNESIPASSIGFVRGLFWQPAHIELCDPIGIGKCSCCGQESNLRYTGFLKEKFTFTVNGLWPHPHSPCLVTVKKGEVEEKFLAFTTSAPSWTQISRVVVDKIIQNENGNRVAAVVNQFRNIAPQSPLELIMGGYRNNQASILERRHDVLMFNQGWQQYGNVINEIVTVGLGYKTALRKALYTFAEGFKNKDFKGAGVSVHETAERHFYRQSELLIPDVLANVNFSQADEVIADLRDKLHQLCEMLFNQSVAPYAHHPKLISTLALARATLYKHLRELKPQGGPSNG
notes: The tag was removed with TEV protease; also called Fokl-Cas8 fusion protein
B1: binds [1].

B2: His6-HRV3C-Cse2 (other)
chain: MAEHHHHHHGALEVLFQGPGYQMADEIDAMALYRAWQQLDNGSCAQIRRVSEPDELRDIPAFYRLVQPFGWENPRHQQALLRMVFCLSAGKNVIRHQDKKSEQTTGISLGRALANSGRINERRIFQLIRADRTADMVQLRRLLTHAEPVLDWPLMARMLTWWGKRERQQLLEDFVLTTNKNA
notes: The tagged subunit by which the Cascade complex was captured on Ni-NTA resin
B2: binds [2].

B3: Strep-tag II-HRV3C-Cse2 (other)
chain: T1 sequence 1
notes: The tagged subunit by which the CasBCDE complex was captured on Strep-Tactin resin
B3: binds [3].
